{"source": "paper PMC7544233", "about": "(2020)", "key": {"[1]": {"test_system": "FAM-D-hTERC rG4 (RNA, G4) GGGUUGCGGAGGGUGGGCCU", "test": "microscale thermophoresis", "settings": "150 mM KCl, 1 mM MgCl2; 25 mM Tris-HCl pH 7.5, 25 °C, 40 nM RNA"}, "RHAU53 peptide": {"molecular_target": "T1, RHAU53 peptide (UniProt Q9H2U1 53-105)", "T1 sequence": "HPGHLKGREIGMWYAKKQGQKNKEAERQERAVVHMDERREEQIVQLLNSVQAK", "test": "EMSA"}, "nucleolin": {"molecular_target": "nucleolin (UniProt P19338 1-710)", "sequence (P19338 whole entry)": "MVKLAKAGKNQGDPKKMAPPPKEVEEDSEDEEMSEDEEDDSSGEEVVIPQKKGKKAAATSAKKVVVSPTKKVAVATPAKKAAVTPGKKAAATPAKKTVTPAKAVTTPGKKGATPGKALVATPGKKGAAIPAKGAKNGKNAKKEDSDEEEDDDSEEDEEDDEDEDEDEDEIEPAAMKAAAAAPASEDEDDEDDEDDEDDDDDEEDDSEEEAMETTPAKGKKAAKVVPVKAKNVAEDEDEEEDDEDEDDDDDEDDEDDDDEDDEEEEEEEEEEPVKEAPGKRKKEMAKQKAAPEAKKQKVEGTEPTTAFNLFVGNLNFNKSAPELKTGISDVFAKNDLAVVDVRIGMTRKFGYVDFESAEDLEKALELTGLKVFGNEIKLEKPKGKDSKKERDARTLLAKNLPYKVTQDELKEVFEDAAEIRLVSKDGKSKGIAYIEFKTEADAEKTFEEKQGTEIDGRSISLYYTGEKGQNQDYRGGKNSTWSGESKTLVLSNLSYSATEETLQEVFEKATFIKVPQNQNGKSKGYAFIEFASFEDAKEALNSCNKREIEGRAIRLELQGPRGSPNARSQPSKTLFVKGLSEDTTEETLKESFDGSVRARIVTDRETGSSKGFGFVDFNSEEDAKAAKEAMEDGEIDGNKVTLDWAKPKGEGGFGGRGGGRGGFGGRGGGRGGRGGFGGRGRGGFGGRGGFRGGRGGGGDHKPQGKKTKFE", "test": "EMSA"}}, "data": [{"molecule": "NCCOc1cc(NC(=O)c2cc(OCc3cn(CCC(=O)O)nn3)cc(C(=O)Nc3cc(OCCN)c4ccccc4n3)n2)nc2ccccc12", "values": [{"measurement": "Kd", "setting": "[1]", "result": "19.5 ± 11.5", "unit": "nM"}]}, {"molecule": "GGGUUGCGGAGGGUGGGCCU (structured_RNA)", "note": "[D-hTERC rG4]", "values": [{"measurement": "Kd", "setting": "RHAU53 peptide", "result": "24.5 ± 3.9", "unit": "nM"}, {"measurement": "binding result", "setting": "nucleolin", "result": "binds"}]}]}
